According to patent US9050374B2, “Inhibitors against endosomal/lysosomal enzymes” (UNIVERSITY COURT OF THE UNIVERSITY OF DUNDEE, priority 2011, dated 2015):
Entries after “also recorded” stand apart in the source; their conditions may differ. Where a SMILES comes first, the peptide text is derived from it. [ ]: non-standard residue; d: D form. The star is where a group is joined. Sta = CC(C)C[C@H](N)[C@@H](O)CC(=O)O; Isovaleryl = CC(C)CC(=O)*

Key:
[1] = Solubility in aqueous media; assay type: physicochemical; details: applicant's own observation
[2] = tested on: endo-lysosomal proteases of purified lysosomes from mouse macrophages; experiment: In vitro digest of apo-HRP with purified macrophage lysosomes; assay type: biochemical; details: SDS-PAGE
Protocol: Lysosomes isolated from bone-marrow derived macrophages using a Percoll density-gradient fractionation (400 ng/μL, 3.6 μL) were resuspended in assay buffer (50 mM Citrate, pH 4.5, 0.5% Triton X-100; 59 μL) Inhibitor (70 μM; 12 μL in PBS+5% DMSO) was added and the mixture incubated for 15 minutes. Protein substrate (1 mg/mL in PBS, 9 μL) was added to the mixture and the reaction was incubated at 37° C. At the indicated timepoints 20 μL of the reaction mixture was removed and boiled with LDS-sample buffer and analysed by SDS-PAGE.

Cathepsin D and E = details: read-out: Ki for inhibition of Cathepsin D and E; cited from earlier work
[3] = cited from earlier work
COS-7 cells, EGFr = experiment: Effect on EGF receptor downregulation and EGF signalling (Western blot); assay type: cell-based
Protocol: COS7 cells growing in 12-well tissue culture plates were preincubated for 1 hour with or without cystatin C (0.35 mg/ml) or CPI (0.32 mg/ml) and then stimulated with 100 ng/ml EGF for the times shown. The cells were scraped from the well in 50 μl lysis buffer containing 50 mM Tris, 150 mM NaCl, 1 mM EGTA, 1 mM EDTA, 1% NP40 plus protease inhibitors (Roche, Miniprotease tablet). […] The blot was then stripped and reprobed for phosphor-Erk (p42/44 MAP kinase; Cell signalling) and as as loading control, Rsk2 (Santa Cruz) with appropriate secondary antibodies. The signals were quantitated using ImageJ analysis software.

AEP = target: T1, AEP (Homo sapiens, UniProt Q99538); details: via a distinct binding site; read-out: Ki for inhibition of AEP; cited from earlier work
T1 sequence (Q99538 18-323): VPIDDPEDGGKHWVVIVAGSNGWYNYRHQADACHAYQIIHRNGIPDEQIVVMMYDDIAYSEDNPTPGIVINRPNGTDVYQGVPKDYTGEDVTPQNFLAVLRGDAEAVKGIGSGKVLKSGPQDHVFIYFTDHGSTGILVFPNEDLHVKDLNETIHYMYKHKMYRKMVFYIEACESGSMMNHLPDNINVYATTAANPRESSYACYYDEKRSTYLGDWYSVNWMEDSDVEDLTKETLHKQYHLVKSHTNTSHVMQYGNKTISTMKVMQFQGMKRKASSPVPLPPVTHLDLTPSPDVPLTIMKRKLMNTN

mouse Cathepsin L = target: T2, mouse Cathepsin L (Mus musculus, UniProt P06797); experiment: Inhibition studies of recombinant Cathepsin L; assay type: biochemical; details: compared among mutants R77C, L117C, T102C; 5 ng Cathepsin L/well
T2 construct: purchased R&D systems
T2 sequence (P06797 114-333 limits assumed): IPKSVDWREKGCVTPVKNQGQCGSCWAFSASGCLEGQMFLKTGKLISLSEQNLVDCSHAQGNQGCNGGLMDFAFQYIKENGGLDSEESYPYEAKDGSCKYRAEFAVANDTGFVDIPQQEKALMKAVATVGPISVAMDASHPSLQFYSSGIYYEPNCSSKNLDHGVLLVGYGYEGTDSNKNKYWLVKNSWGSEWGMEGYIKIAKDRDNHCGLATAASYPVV
Protocol: All protease inhibition studies were carried out as described previously^7-9 on a FLUOstar Optima Fluorimeter (BMG) with 360 nm excitation and 460 nm emission wavelength filters as described previously.^1-2,9-10 Recombinant Cathepsin D and Cathepsin S were purchased from R&D Systems.
The mixture was gently shaken at room temperature for 5 minutes prior to the addition of Z-Leu-Arg-AMC (40 μM in assay buffer, made from a 1 mM DMSO Stock solution). 7-amino-4-methylcoumarin release was measured by fluorescence spectroscopy over time. Initial rates were plotted against inhibitor concentration^11.

Molecule: CC(C)CC(=O)N[C@H](C(=O)N[C@H](C(=O)N[C@@H](CC(C)C)[C@@H](O)CC(=O)N[C@@H](C)C(=O)N[C@@H](CC(C)C)[C@@H](O)CC(=O)O)C(C)C)C(C)C [pepstatin A] (Isovaleryl-VV[Sta]A[Sta]-OH)
- water solubility, in words [1]: insolubility; also recorded: very insoluble
- stabilization of apo-HRP against lysosomal degradation ([2]; FIG. 9, listed as pepstatin): little or no stabilization
- Ki (Cathepsin D and E): 0.1 nM
- solubility in aqueous media, in words [3]: virtual insolubility in aqueous media

B1: cystatin C: naturally occurring 14 kDa protein that inhibits PLCPs and AEP (protein, listed as Homo sapiens)
chain: MAGPLRAPLLLLAILAVALAVSPAAGSSPGKPPRLVGGPMDASVEEEGVRRALDFAVGEYNKASNDMYHSRALQVVRARKQIVAGVNYFLDVELGRTTCTKTQPNLDNCPFHDQPHLKRKAFCSFQIYAVPWQGTMTLSKSTCQDA
modifications: Cystatin C
- stabilization of apo-HRP against lysosomal degradation ([2]; FIG. 9, listed as Cystatin C): appears to protect a fragment only
- stabilization of apo-HRP against lysosomal degradation ([2]; FIG. 9, listed as cystatin): little or no stabilization
- EGFr level / downregulation after EGF challenge (COS-7 cells, EGFr; 1 hour preincubation, 100 ng/ml EGF up to 90 min, Western blot): suppressed EGFr downregulation but not to the same extent as CPI
- activation of MAP kinases Erk1/2 (check for inhibitor toxicity) (COS-7 cells, EGFr; COS-7 cells stimulated with EGF): normally
- Ki (AEP): 0.2 nM

B2: T102C: cystatin C mutant with threonine 102 replaced by cysteine, C-terminal 6His-tag (protein)
chain: SSPGKPPRLVGGPMDASVEEEGVRRALDFAVGEYNKASNDMYHSRALQVVRARKQIVAGVNYFLDVELGRTTCTKCQPNLDNCPFHDQPHLKRKAFCSFQIYAVPWQGTMTLSKSTCQDAHHHHHH
- inhibitory properties of cystatin C mutants (mouse Cathepsin L): most favourable inhibitory properties
